PMC10713628, “UniKP: a unified framework for the prediction of enzyme kinetic parameters” (Nature Communications, 2023)

Tests used:
TALclu = test system: T1, TALclu; test: coumaric acid formation at […] nm; type: biochemical, Chryseobacterium luteum; details: Tris-HCl, 40 °C, 30 min; pH 9.5 in table note (buffer pH 8.5 in methods)
T1 construct: gene TAL; codon-optimised synthetic gene in pET32a, E. coli BL21(DE3) per general method; purified; tags not described

LeTAL = test system: T2, LeTAL; test: coumaric acid formation at […] nm; type: biochemical, Lentinula edodes; details: Tris-HCl, 40 °C, 30 min; pH 9.5 in table note (buffer pH 8.5 in methods)
T2 construct: gene TAL; codon-optimised synthetic gene in pET32a, E. coli BL21(DE3); purified; tags not described

PpTAL = test system: T3, PpTAL; test: coumaric acid formation at […] nm; type: biochemical, Pleurotus pulmonarius; details: Tris-HCl, 40 °C, 30 min; pH 9.5 in table note (buffer pH 8.5 in methods)
T3 construct: gene TAL; codon-optimised synthetic gene in pET32a, E. coli BL21(DE3); purified; tags not described

TrTAL = test system: T4, TrTAL; test: coumaric acid formation at […] nm; type: biochemical, Tephrocybe rancida; details: Tris-HCl, 40 °C, 30 min; pH 9.5 in table note (buffer pH 8.5 in methods)
T4 construct: gene TAL; codon-optimised synthetic gene in pET32a, E. coli BL21(DE3); purified; tags not described

[1] = test system: N[C@@H](Cc1ccc(O)cc1)C(=O)O; test: purified protein; details: Tris-HCl, 40 °C, 30 min, pH 9.5 in table note (buffer pH 8.5 in methods)
[2] = test system: T5, N[C@@H](Cc1ccc(O)cc1)C(=O)O; test: purified protein; type: biochemical, Rhodotorula glutinis; details: Tris-HCl, 40 °C, 30 min, pH 9.5 in table note (buffer pH 8.5 in methods)
T5 construct: full length 693 residues; pET32a, E. coli BL21(DE3); purified; tags not described

purified protein [3] = substrate: N[C@@H](Cc1ccc(O)cc1)C(=O)O; test: purified protein; type: biochemical, Armillaria solidipes; details: Tris-HCl, 40 °C, 30 min, pH 9.5 in table note (buffer pH 8.5 in methods)
purified protein [4] = substrate: N[C@@H](Cc1ccc(O)cc1)C(=O)O; test: purified protein; type: biochemical, Rhodotorula glutinis; details: Tris-HCl, 40 °C, 30 min, pH 9.5 in table note (buffer pH 8.5 in methods)

Molecule `N[C@@H](Cc1ccc(O)cc1)C(=O)O` [L-tyrosine] has a Km (TALclu) of 50 µM, a Km (LeTAL) of 70 µM and a Km (PpTAL) of 40 µM. For the same molecule, the Km (TrTAL) was 40 µM.

AaTAL (Aspergillus arachidicola) gave a Km [1] of 30 µM, a kcat [1] of 25.2 s⁻¹ and a kcat/Km [1] of 841000 M⁻¹ s⁻¹.

For “IsTAL (Ilyonectria sp. MPI-CAGE-AT-0026)”, the Km [1] was 570 µM, the kcat [1] was 120 s⁻¹ and the kcat/Km [1] was 210000 M⁻¹ s⁻¹.

Work on PcTAL (Puccinia coronata f. sp. avenae) yielded a Km [1] of 170 µM, a kcat [1] of 66.6 s⁻¹ and a kcat/Km [1] of 392000 M⁻¹ s⁻¹.

With RgTAL (Rhodotorula glutinis; E366H) the Km [2] was 480 µM, the kcat [2] was 40.3 s⁻¹ and the kcat/Km [2] was 84000 M⁻¹ s⁻¹.

RgTAL (Rhodotorula glutinis; E366W) was tested, and the Km [2] was 850 µM, the kcat [2] was 31 s⁻¹ and the kcat/Km [2] was 36500 M⁻¹ s⁻¹.

For RgTAL (Rhodotorula glutinis; E587V), the Km [2] was 330 µM, the kcat [2] was 163 s⁻¹ and the kcat/Km [2] was 494000 M⁻¹ s⁻¹.

Work on RgTAL (Rhodotorula glutinis; I668S) yielded a Km [2] of 3850 µM, a kcat [2] of 53.6 s⁻¹ and a kcat/Km [2] of 13900 M⁻¹ s⁻¹.

RgTAL (Rhodotorula glutinis; K603P) showed a Km [2] of 1150 µM, a kcat [2] of 52.6 s⁻¹ and a kcat/Km [2] of 45700 M⁻¹ s⁻¹.

RgTAL (Rhodotorula glutinis; Q10Y) showed a Km [2] of 820 µM, a kcat [2] of 884 s⁻¹ and a kcat/Km [2] of 1.08e+06 M⁻¹ s⁻¹.

RgTAL (Rhodotorula glutinis; Q337C) showed a Km [2] of 6480 µM, a kcat [2] of 96.8 s⁻¹ and a kcat/Km [2] of 14900 M⁻¹ s⁻¹.

Work on RgTAL (Rhodotorula glutinis; Q337D) yielded a Km [2] of 850 µM, a kcat [2] of 34.8 s⁻¹ and a kcat/Km [2] of 40900 M⁻¹ s⁻¹.

Work on RgTAL (Rhodotorula glutinis; R489T) yielded a Km [2] of 710 µM, a kcat [2] of 817 s⁻¹ and a kcat/Km [2] of 1.15e+06 M⁻¹ s⁻¹.

B1: AsTAL (Armillaria solidipes) (protein)
chain: MPASVFDDINSETKSGKGVGGVSGAHRTPSLLAKFLDSHKELKSYRNGRPVKVDGHTLSIAAVTAAARYNATVDLDGSPQVKAGVMKSRAVIADKVDNGTSVYGVSTGFGGSADTRTDQPLKLGQALLQHQHAGVLPSSDRTLDVLPLLDPMASTSMPESWVRGAMLVRMNSLIRGHSGVRWELLEKINELLRANITPVVPLRSSISASGDLSPLSYVAGTLVANPSIRVFDGPKKFGARKMVSSKDALASHGIQPISLVSKEGLGILNGTAFSASVASLALNDAVHLALLAQICTALGTEALSGTLGNYAPFIHATARPHPGQVESARHIWNLLRGSKLATTHEEEVSINQDKYSLRQDRYPLRTAPQFLGPQIEDILSALSTVIQECNSTTDNPLIDGETGEVHHGGNFQAMAVSNAMEKTRLALHHIGRLLFAQSTELVNPVMNHGLPPSLAASDPSLNYHGKGVDIATAAYVAELGYLAGPVTTHIQSAEMHNQAVNSLALISARATVNALEVLTMLMSSYLYLLCQAVDLRALRREFNTGLKSILSEELSAILGSQLSSQEIDISVSSMWGVVQTTLDKTTTMDAVDQMREVATACIPALIETVSRTNAINNALSSISQFRTNVASKATKLMAELRSSYLLGGRGPAPAGPYLGKTRAVYEYIRITLGVKMHGIENLGSFPNGLGVDDVTIGQNITAIFEAIRDGNFQDAVADLFEVLPHVKL
notes: codon-optimised synthetic gene in pET32a, E. coli BL21(DE3); purified; tags not described
B1 was tested, and the Km (purified protein [3]) was 540 µM, the kcat (purified protein [3]) was 449 s⁻¹ and the kcat/Km (purified protein [3]) was 831000 M⁻¹ s⁻¹.

B2: RgTAL (Rhodotorula glutinis) (protein)
chain: MAPRPTSQSQARTCPTTQVTQVDIVEKMLAAPTDSTLELDGYSLNLGDVVSAARKGRPVRVKDSDEIRSKIDKSVEFLRSQLSMSVYGVTTGFGGSADTRTEDAISLQKALLEHQLCGVLPSSFDSFRLGRGLENSLPLEVVRGAMTIRVNSLTRGHSAVRLVVLEALTNFLNHGITPIVPLRGTISASGDLSPLSYIAAAISGHPDSKVHVVHEGKEKILYAREAMALFNLEPVVLGPKEGLGLVNGTAVSASMATLALHDAHMLSLLSQSLTAMTVEAMVGHAGSFHPFLHDVTRPHPTQIEVAGNIRKLLEGSRFAVHHEEEVKVKDDEGILRQDRYPLRTSPQWLGPLVSDLIHAHAVLTIEAGQSTTDNPLIDVENKTSHHGGNFQAAAVANTMEKTRLGLAQIGKLNFTQLTEMLNAGMNRGLPSCLAAEDPSLSYHCKGLDIAAAAYTSELGHLANPVTTHVQPAEMANQAVNSLALISARRTTESNDVLSLLLATHLYCVLQAIDLRAIEFEFKKQFGPAIVSLIDQHFGSAMTGSNLRDELVEKVNKTLAKRLEQTNSYDLVPRWHDAFSFAAGTVVEVLSSTSLSLAAVNAWKVAAAESAISLTRQVRETFWSAASTSSPALSYLSPRTQILYAFVREELGVKARRGDVFLGKQEVTIGSNVSKIYEAIKSGRINNVLLKMLA
notes: full length 693 residues; pET32a, E. coli BL21(DE3); purified; tags not described
Molecule B2 has a Km (purified protein [4]) of 360 µM, a kcat (purified protein [4]) of 118 s⁻¹ and a kcat/Km (purified protein [4]) of 327000 M⁻¹ s⁻¹.
